The values below come from patent WO2017055393A1.

In test [1] the target is human Tim-3 (T cell Immunoglobulin- and Mucin domain-containing molecule 3) (human) (UniProt Q8TDQ0). The experiment in a line: FACS, 10 ug/ml PE-labeled antibody on RPMI-8226 cells; geom. mean MFI sample minus isotype control. For orientation: A flow cytometer gives signals particle by particle.
Test [2] shares this target. The experiment in a line: FACS, 10 ug/ml PE-labeled antibody on SR cells; geom. mean MFI sample / isotype control.
The target is the same in test [3]. Description: FACS, 10 ug/ml PE-labeled antibody on Kasumi-1 cells; geom. mean MFI sample / isotype control.
Test [4] shares this target. Description: FACS, 10 ug/ml PE-labeled antibody on EOL-1 cells (24h pre-treated with 10 ng/ml PMA); geom. mean MFI sample minus isotype control.
The target is the same in test [5]. Description: FACS, 10 ug/ml PE-labeled antibody on EOL-1 cells (24h pre-treated with 10 ng/ml PMA); geom. mean MFI sample / isotype control.
Test [6] shares this target. The experiment in a line: FACS, 10 ug/ml PE-labeled antibody on SR cells; geom. mean MFI sample minus isotype control.
For test [7] the target is unchanged. The experiment in a line: FACS, 10 ug/ml PE-labeled antibody on KG-1 cells; geom. mean MFI sample minus isotype control.
The target is the same in test [8]. Description: FACS, 10 ug/ml PE-labeled antibody on Karpas-299 cells; geom. mean MFI sample minus isotype control.
The target is the same in test [9]. Description: FACS, 10 ug/ml PE-labeled antibody on Karpas-299 cells; geom. mean MFI sample / isotype control.
The target is the same in test [10]. The experiment in a line: FACS, 10 ug/ml PE-labeled antibody on Pfeiffer cells; geom. mean MFI sample minus isotype control.
Test [11] has the same target. The experiment in a line: FACS, 10 ug/ml PE-labeled antibody on Kasumi-1 cells; geom. mean MFI sample minus isotype control.
Test [12] shares this target. Description: FACS, 10 ug/ml PE-labeled antibody on Pfeiffer cells; geom. mean MFI sample / isotype control.
The target is the same in test [13]. The experiment in a line: FACS, 10 ug/ml PE-labeled antibody on TF-1 cells; geom. mean MFI sample minus isotype control.
The target is the same in test [14]. The experiment in a line: FACS, 10 ug/ml PE-labeled antibody on KG-1 cells; geom. mean MFI sample / isotype control.
Test [15] has the same target. Description: FACS, 10 ug/ml PE-labeled antibody on CMK cells; geom. mean MFI sample / isotype control.
The target is the same in test [16]. Description: FACS, 10 ug/ml PE-labeled antibody on RPMI-8226 cells; geom. mean MFI sample / isotype control.
For test [17] the target is unchanged. The experiment in a line: FACS, 10 ug/ml PE-labeled antibody on CMK cells; geom. mean MFI sample minus isotype control.
Test [18] shares this target. The experiment in a line: FACS, 10 ug/ml PE-labeled antibody on TF-1 cells; geom. mean MFI sample / isotype control.

Chain of human Tim-3 (T cell Immunoglobulin- and Mucin domain-containing molecule 3) (human) (Q8TDQ0 22-301): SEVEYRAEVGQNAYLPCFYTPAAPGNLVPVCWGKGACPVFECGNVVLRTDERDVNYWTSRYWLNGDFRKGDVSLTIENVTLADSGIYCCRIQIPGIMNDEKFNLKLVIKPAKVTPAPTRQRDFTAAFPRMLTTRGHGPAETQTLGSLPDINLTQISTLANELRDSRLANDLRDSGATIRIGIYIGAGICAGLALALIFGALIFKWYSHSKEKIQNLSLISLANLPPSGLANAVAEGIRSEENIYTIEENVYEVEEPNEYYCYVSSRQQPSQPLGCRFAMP

Take “PE labeled anti-TIM3 (clone 344823, R&D) (antibody)”: the MFI (specific binding) is 1790 MFI in test [1]; 207 MFI in test [4]; 1050 MFI in test [6]; 363 MFI in test [7]; 247 MFI in test [8]; 3610 MFI in test [10]. Besides, the MFI (specific binding) worked out at 164 MFI in test [11], 229 MFI in test [13] and 384 MFI in [17]. The RFI (ratio of specific binding) in [2] turned out to be 19 RFI; in test [3] it was 4 RFI; in [5], 2 RFI; in test [9] it was 3 RFI; in [12], 51 RFI; in [14], 5 RFI. For the same substance, the RFI (ratio of specific binding) in test [15] came out at 5 RFI; in [16], 23 RFI; in test [18], 3 RFI.
